Assay results: patent US9765127

Target: porcine pancreatic secretory PLA2 enzyme (sPLA2 1B) (porcine) (UniProt P00592)
Experiment: cell-based or functional assay

Sequence of UniProt P00592 (P00592 23-146): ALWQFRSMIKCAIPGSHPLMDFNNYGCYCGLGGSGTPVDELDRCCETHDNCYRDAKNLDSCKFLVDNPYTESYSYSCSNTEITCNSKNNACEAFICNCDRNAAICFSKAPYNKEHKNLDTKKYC

recombinant human SCGB3A2 with N-terminus ATA (from UniProt Q96PL1 19-93)
% inhibition of sPLA2-1B activity (fluorescent HPLC assay, cleavage of UNIBIPY substrate): 83%
